{
  "source": "patent US12655441B2",
  "about": "“PPO polypeptides tolerant to PPO-inhibiting herbicides and use thereof” (QINGDAO KINGAGROOT CHEMICAL COMPOUND CO., LTD., priority 2021, dated 2026)",
  "molecules": {"B1": {"name": "ZmPPO1 WT: Amino-acid sequence of PPO1 from wild-type corn (protein)", "chain": "MVAATATATAMATAASPLLNGTRIPARLRHRGLSVRCAAVAGGAAEAPASTGARLSADCVVVGGGISGLCTAQALATRHGVGDVLVTEARARPGGNITTVERPEEGYLWEEGPNSFQPSDPVLTMAVDSGLKDDLVFGDPNAPRFVLWEGKLRPVPSKPADLPFFDLMSIPGKLRAGLGALGIRPPPPGREESVEEFVRRNLGAEVFERLIEPFCSGVYAGDPSKLSMKAAFGKVWRLEETGGSIIGGTIKTIQERSKNPKPPRDARLPKPKGQTVASFRKGLAMLPNAITSSLGSKVKLLWKLTSITKSDDKGYVLEYETPEGVVSVQAKSVIMTIPSYVASNILRPLSSDAADALSRFYYPPVAAVTVSYPKEAIRKECLIDGELQGFGQLHPRSQGVETLGTIYSSSLFPNRAPDGRVLLLNYIGGATNTGIVSKTESELVEAVDRDLRKMLINSTAVDPLVLGVRVWPQAIPQFLVGHLDLLEAAKAALDRGGYDGLFLGGNYVAGVALGRCVEGAYESASQISDFLTKYAYK", "modifications": "Amino-acid sequence of PPO1 from wild-type corn (ZmPPO1 WT)"}, "B2": {"name": "ZmPPO1 L424W/Y426L: Amino-acid sequence of PPO1 from corn mutant (protein)", "chain": "B1 chain with L424W, Y426L", "modifications": "Amino-acid sequence of PPO1 from corn mutant (ZmPPO1 L424W/Y426L)"}, "B3": {"name": "BnPPO1-C5 WT: Amino-acid sequence of PPO1 wild-type from oilseed rape (protein)", "chain": "MDLSLLRPQPFLSPFSNPFPRSRPYKPPNLRCSVSGGSVVGGSSTIEGGRGGKTVAADCVIVGGGISGLCIAQALVTKHPDAAKSVMVTEAKDRVGGNIITREEQGFLWEEGPNSFQPSDPMLTMVVDSGLKDDLVLGDPTAPRFVLWNGKLRPVPSKLTDLPFFDLMSIGGKIRAGFGAIGIRPSPPGREESVEEFVRRNLGDEVFERLIEPFCSGVYAGDPAKLSMKAAFGKVWKLEENGGSIIGGAFKAIQARNKAPKTTRDPRLPKPKGQTVGSFRKGLTMLPDAISARLGDKVKVSWKLSSISKLPSGGYSLTYETPEGIVTVQSKSVVMTVPSHVASSLLRPLSDSAAEALSKLYYPPVAAVSISYPKEAIRSECLIDGELKGFGQLHPRTQKVETLGTIYSSSLFPNRAPPGRVLLLNYIGGATNTGILSKSEGELVEAVDRDLRKMLIKPSSTDPLVLGVKVWPQAIPQFLIGHIDLVDAAKASLSSSGHEGLFLGGNYVAGVALGRCVEGAYETATQVNDFMSRYAYK", "modifications": "Amino-acid sequence of PPO1 wild-type from oilseed rape (BnPPO1-C5)"}, "B4": {"name": "BnPPO1-C5 L424S/Y426I: Amino-acid sequence of PPO1 from oilseed rape mutant (protein)", "chain": "B3 chain with L424S, Y426I", "modifications": "Amino-acid sequence of PPO1 from oilseed rape mutant (BnPPO1-C5 L424S/Y426I)"}, "B5": {"name": "GmPPO1 WT: Amino-acid sequence of PPO1 from wild-type soybean (protein)", "chain": "MVSVFNEILFPPNQTLLRPSLHSPTSFFTSPTRKFPRSRPNPILRCSIAEESTASPPKTRDSAPVDCVVVGGGVSGLCIAQALATKHANANVVVTEARDRVGGNITTMERDGYLWEEGPNSFQPSDPMLTMVVDSGLKDELVLGDPDAPRFVLWNRKLRPVPGKLTDLPFFDLMSIGGKIRAGFGALGIRPPPPGHEESVEEFVRRNLGDEVFERLIEPFCSGVYAGDPSKLSMKAAFGKVWKLEKNGGSIIGGTFKAIQERNGASKPPRDPRLPKPKGQTVGSFRKGLTMLPDAISARLGNKVKLSWKLSSISKLDSGEYSLTYETPEGVVSLQCKTVVLTIPSYVASTLLRPLSAAAADALSKFYYPPVAAVSISYPKEAIRSECLIDGELKGFGQLHPRSQGVETLGTIYSSSLFPNRAPPGRVLLLNYIGGATNTGILSKTDSELVETVDRDLRKILINPNAQDPFVVGVRLWPQAIPQFLVGHLDLLDVAKASIRNTGFEGLFLGGNYVSGVALGRCVEGAYEVAAEVNDFLTNRVYK", "modifications": "Amino-acid sequence of PPO1 from wild-type soybean (GmPPO1)"}, "B6": {"name": "GmPPO1 L430S/Y432I: Amino-acid sequence of PPO1 from soybean mutant (protein)", "chain": "B5 chain with L430S, Y432I", "modifications": "Amino-acid sequence of PPO1 from soybean mutant (GmPPO1 L430S/Y432I)"}, "B7": {"name": "L423I (protein)", "chain": "MAAAAAAMATATSATAAPPLRIRDAARRTRRRGHVRCAVASGAAEAPAAPGARVSADCVVVGGGISGLCTAQALATKHGVGDVLVTEARARPGGNITTAERAGEGYLWEEGPNSFQPSDPVLTMAVDSGLKDDLVFGDPNAPRFVLWEGKLRPVPSKPGDLPFFDLMSIPGKLRAGLGALGVRAPPPGREESVEDFVRRNLGAEVFERLIEPFCSGVYAGDPSKLSMKAAFGKVWRLEDTGGSIIGGTIKTIQERGKNPKPPRDPRLPTPKGQTVASFRKGLTMLPDAITSRLGSKVKLSWKLTSITKSDNKGYALVYETPEGVVSVQAKTVVMTIPSYVASDILRPLSSDAADALSIFYYPPVAAVTVSYPKEAIRKECLIDGELQGFGQLHPRSQGVETLGTIYSSSLFPNRAPAGRVLLINYIGGSTNTGIVSKTESELVEAVDRDLRKMLINPKAVDPLVLGVRVWPQAIPQFLIGHLDHLEAAKSALGKGGYDGLFLGGNYVAGVALGRCVEGAYESASQISDYLTKYAYK", "modifications": "Amino-acid sequence of PPO1 from rice mutant (OsPPO1 L423I)"}, "B8": {"name": "L424T/Y426V (protein)", "chain": "B1 chain with L424T, Y426V", "modifications": "Amino-acid sequence of PPO1 from corn mutant (ZmPPO1 L424T/Y426V)"}, "B9": {"name": "L424S/Y426V (protein)", "chain": "B1 chain with L424S, Y426V", "modifications": "Amino-acid sequence of PPO1 form corn mutant (ZmPPO1 L424S/Y426V)"}, "B10": {"name": "L424V/Y426L (protein)", "chain": "B1 chain with L424V, Y426L", "modifications": "Amino-acid sequence of PPO1 from corn mutant (ZmPPO1 L424V/Y426L)"}},
  "note": "Positions count from the first letter of the chain named. Names and notes keep the numbering of the source.",
  "data": [
    {"test_system": "Arabidopsis thaliana", "experiment": "Herbicide resistance test of Arabidopsis thaliana seeds overexpressing crop PPO1 WT or mutant on MS medium", "assay_type": "in vivo", "settings": "overexpressed in Arabidopsis thaliana seed, different concentrations of compound A", "experimental": "(§1) 1) Sowing: plump and vernalized wild-type Arabidopsis thaliana seeds were selected, treated with 75% alcohol for 1 minute, disinfected with 10% NaClO for 6 minutes, and washed with sterile water for 5 to 6 times. After the sterilization was completed, the seeds were placed on a MS medium plate for one week, then transplanted to sterilized nutrient soil (nutrient soil:vermiculite=1:1) and cultured in a greenhouse at (25±2) ° C. with a photoperiod of 16 h/8 h (light/dark).\n(§2) 4) Infestation of Arabidopsis thaliana inflorescences: the uninfected Arabidopsis thaliana with good growth state and lush inflorescences were selected for infection and their fruit pods were cut off from the plants by scissors prior to transformation. The Arabidopsis thaliana inflorescences were dipped in the prepared infection solution for 0.5 to 1 minute. Then the infected Arabidopsis thaliana seedlings were placed in dark and humid conditions for 24 hours. After one week, the infection was repeated.\n(§3) After the transformation of dipped Arabidopsis thaliana inflorescences, Arabidopsis thaliana TO-generation seeds were collected and sowed on a resistant MS plate containing 30 mg/L hygromycin to screen positive plants.\n(§4) The obtained overexpressed mutant and wild-type Arabidopsis thaliana seeds of different crops were tested for resistance on a MS medium (petri dish) containing different concentrations of PPO-inhibiting herbicidal compounds, as shown in FIG. 12-23.", "values": [
      {"molecule": "B1", "tolerance to compound A compared with wild-type Arabidopsis thaliana": "certain level of tolerance"},
      {"molecule": "B2", "tolerance to compound A compared with the overexpressed wild-type PPO1": "much higher", "tolerance to compound A compared with wild-type Arabidopsis thaliana": "certain level of tolerance"},
      {"molecule": "B3", "tolerance to compound A compared with wild-type Arabidopsis thaliana": "certain level of tolerance"},
      {"molecule": "B4", "tolerance to compound A compared with the overexpressed wild-type PPO1": "much higher", "tolerance to compound A compared with wild-type Arabidopsis thaliana": "certain level of tolerance"},
      {"molecule": "B5", "tolerance to compound A compared with wild-type Arabidopsis thaliana": "certain level of tolerance"},
      {"molecule": "B6", "tolerance to compound A compared with the overexpressed wild-type PPO1": "much higher", "tolerance to compound A compared with wild-type Arabidopsis thaliana": "certain level of tolerance"}
    ]},
    {"test_system": "Arabidopsis thaliana", "experiment": "Herbicide resistance test of Arabidopsis thaliana seeds overexpressing crop PPO1 WT or mutant on MS medium", "assay_type": "in vivo", "settings": "overexpressed in Arabidopsis thaliana seed, different concentrations of flumioxazin", "experimental": "as §1, §2, §3, §4", "values": [
      {"molecule": "B1", "tolerance to flumioxazin compared with wild-type Arabidopsis thaliana": "certain level of tolerance"},
      {"molecule": "B2", "tolerance to flumioxazin compared with the overexpressed wild-type PPO1": "much higher", "tolerance to flumioxazin compared with wild-type Arabidopsis thaliana": "certain level of tolerance"},
      {"molecule": "B3", "tolerance to flumioxazin compared with wild-type Arabidopsis thaliana": "certain level of tolerance"},
      {"molecule": "B4", "tolerance to flumioxazin compared with the overexpressed wild-type PPO1": "much higher", "tolerance to flumioxazin compared with wild-type Arabidopsis thaliana": "certain level of tolerance"},
      {"molecule": "B5", "tolerance to flumioxazin compared with wild-type Arabidopsis thaliana": "certain level of tolerance"},
      {"molecule": "B6", "tolerance to flumioxazin compared with the overexpressed wild-type PPO1": "much higher", "tolerance to flumioxazin compared with wild-type Arabidopsis thaliana": "certain level of tolerance"}
    ]},
    {"test_system": "Arabidopsis thaliana", "experiment": "Herbicide resistance test of Arabidopsis thaliana seeds overexpressing crop PPO1 WT or mutant on MS medium", "assay_type": "in vivo", "settings": "overexpressed in Arabidopsis thaliana seed, different concentrations of saflufenacil", "experimental": "as §1, §2, §3, §4", "values": [
      {"molecule": "B1", "tolerance to saflufenacil compared with wild-type Arabidopsis thaliana": "certain level of tolerance"},
      {"molecule": "B2", "tolerance to saflufenacil compared with the overexpressed wild-type PPO1": "much higher", "tolerance to saflufenacil compared with wild-type Arabidopsis thaliana": "certain level of tolerance"},
      {"molecule": "B3", "tolerance to saflufenacil compared with wild-type Arabidopsis thaliana": "certain level of tolerance"},
      {"molecule": "B4", "tolerance to saflufenacil compared with the overexpressed wild-type PPO1": "much higher", "tolerance to saflufenacil compared with wild-type Arabidopsis thaliana": "certain level of tolerance"},
      {"molecule": "B5", "tolerance to saflufenacil compared with wild-type Arabidopsis thaliana": "certain level of tolerance"},
      {"molecule": "B6", "tolerance to saflufenacil compared with the overexpressed wild-type PPO1": "much higher", "tolerance to saflufenacil compared with wild-type Arabidopsis thaliana": "certain level of tolerance"}
    ]},
    {"test_system": "PPO-deficient Escherichia coli (ΔhemG)", "experiment": "PPO-deficient E. coli (ΔhemG) transformed by rice OsPPO1 mutant genes, growth on LB medium containing herbicide", "settings": "500 nM compound A", "values": [
      {"molecule": "B7", "growth of ΔhemG transformant on LB medium containing compound A, compared with the wild type": "grew normally"}
    ]},
    {"test_system": "PPO-deficient Escherichia coli (ΔhemG)", "experiment": "PPO-deficient E. coli (ΔhemG) transformed by corn ZmPPO1 mutant genes, growth on LB medium containing compound A", "assay_type": "cell-based", "settings": "compound A 5 μM", "experimental": "To verify whether the mutation of the PPO1-conserved protein motif LLLNYI in other plants could also confer resistance to herbicides, the mutation combination of leucine residues at the third position and tyrosine residues at the fifth position in the protein motif LLLNYI was carried out by using the same method as described in the above examples and screened by using of the LB medium containing herbicidal compound A, and the growth inhibition was observed.", "values": [
      {"molecule": "B8", "growth of ΔhemG transformant on plates containing compound A, compared with ZmPPO1-WT": "grew normally without an inhibition"},
      {"molecule": "B9", "growth of ΔhemG transformant on plates containing compound A, compared with ZmPPO1-WT": "grew normally without an inhibition"},
      {"molecule": "B10", "growth of ΔhemG transformant on plates containing compound A, compared with ZmPPO1-WT": "grew normally without an inhibition"},
      {"molecule": "B2", "growth of ΔhemG transformant on plates containing compound A, compared with ZmPPO1-WT": "grew normally without an inhibition"}
    ]}
  ]
}
